Measured values reported in US20190300620A1.

Target: CD46 on target cells (LNCAP-C4-B2 and other prostate cancer cell lines) (UniProt P15529)
Assay: cell-based or functional assay

Chain of UniProt P15529 (P15529 35-392 limits assumed): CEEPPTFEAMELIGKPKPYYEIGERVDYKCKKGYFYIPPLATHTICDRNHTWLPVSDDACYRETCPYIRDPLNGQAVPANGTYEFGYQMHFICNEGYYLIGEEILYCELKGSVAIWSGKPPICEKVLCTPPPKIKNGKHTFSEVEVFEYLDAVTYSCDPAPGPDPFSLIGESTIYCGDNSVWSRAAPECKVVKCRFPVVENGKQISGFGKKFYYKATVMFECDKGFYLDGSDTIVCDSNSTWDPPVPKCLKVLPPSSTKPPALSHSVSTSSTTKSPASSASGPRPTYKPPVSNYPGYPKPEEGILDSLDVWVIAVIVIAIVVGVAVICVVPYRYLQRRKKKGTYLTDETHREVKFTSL

## anti-CD46 CAR (YS5FL-scFv in a second generation lentivirus CAR containing CD28 and CD3zeta), on transduced human T cells
  killing rate of LNCAP-C4-B2 target cells (real time cytotoxicity assay, impedance, effector:target 10:1): > 99%
